Results as given in publication PMC7886851 (Scientific Reports, 2021).

B1: YidC23C labelled with Atto520 (YidC W23C, single cysteine) (natural protein)
chain: MDSQRNLLVIALLFVSFMIWQACEQDKNPQPQAQQTTQTTTTAAGSAADQGVPASGQGKLISVKTDVLDLTINTRGGDVEQALLPAYPKELNSTQPFQLLETSPQFIYQAQSGLTGRDGPDNPANGPRPLYNVEKDAYVLAEGQNELQVPMTYTDAAGNTFTKTFVLKRGDYAVNVNYNVQNAGEKPLEISSFGQLKQSITLPPHLDTGSSNFALHTFRGAAYSTPDEKYEKYKFDTIADNENLNISSKGGWVAMLQQYFATAWIPHNDGTNNFYTANLGNGIAAIGYKSQPVLVQPGQTGAMNSTLWVGPEIQDKMAAVAPHLDLTVDYGWLWFISQPLFKLLKWIHSFVGNWGFSIIIITFIVRGIMYPLTKAQYTSMAKMRMLQPKIQAMRERLGDDKQRISQEMMALYKAEKVNPLGGSFPLLIQMPIFLALYYMLMGSVELRQAPFALWIHDLSAQDPYYILPILMGVTMFFIQKMSPTTVTDPMQQKIMTFMPVIFTVFFLWFPSGLVLYYIVSNLVTIIQQQLIYRGLEKRGLHSREKKKS
modifications: Atto520 (maleimide dye) on cysteine 23; labelling efficiency 18%
B2: SecYEG with SecY142C labelled with Atto647N (complex)
chain 1: MAKQPGLDFQSAKGGLGELKRRLLFVIGALIVFRIGSFIPIPGIDAAVLAKLLEQQRGTIIEMFNMFSGGALSRASIFALGIMPYISASIIIQLLTVVHPTLAEIKKEGESGRRKISQYTRYGTLVLAIFQSIGIATGLPNCPGMQGLVINPGFAFYFTAVVSLVTGTMFLMWLGEQITERGIGNGISIIIFAGIVAGLPPAIAHTIEQARQGDLHFLVLLLVAVLVFAVTFFVVFVERGQRRIVVNYAKRQQGRRVYAAQSTHLPLKVNMAGVIPAIFASSIILFPATIASWFGGGTGWNWLTTISLYLQPGQPLYVLLYASAIIFFSFFYTALVFNPRETADNLKKSGAFVPGIRPGEQTAKYIDKVMTRLTLVGALYITFISLIPEFMRDAMKVPFYFGGTSLLIVVVVIMDFMAQVQTLMMSSQYESALKKANLKGYGR
chain 2: MSANTEAQGSGRGLEAMKWVVVVALLLVAIVGNYLYRDIMLPLRALAVVILIAAAGGVALLTTKGKATVAFAREARTEVRKVIWPTRQETLHTTLIVAAVTAVMSLILWGLDGILVRLVSFITGLRF
chain 3: MYEALLVVFLIVAIGLVGLIMLQQGKGADMGASFGAGASATLFGSSGSGNFMTRMTALLATLFFIISLVLGNINSNKTNKGSEWENLSAPAKTEQTQPAAPAKPTSDIPN
modifications: Atto647N (maleimide dye) on cysteine 142; labelling efficiency 24%

Legend:
[1] = target: B2; experiment: FRET or BRET; ensemble FRET in detergent: 0.55 µM YidC-Atto520 (donor) in 0.03% dodecyl maltoside titrated with increasing SecYEG-Atto647N (acceptor); excitation 516 nm, donor at 538 nm, acceptor at 669 nm; buffer controls for dilution; Kd by Lineweaver-Burk linearisation; settings: both partners purified
[2] = target: B1; experiment: as above; settings: both partners purified

Row | Kd [1] [nM] | stoichiometry N [2] | Binder
1 | 27 ± 10 |  | B1
2 |  | 1 | B2
